Patent publication US20200040401A1 (KAOHSIUNG MEDICAL UNIVERSITY, published 2020)

Columns and labels:
[1] = target: endogenous PREX2 of mouse liver (mouse, UniProt Q3LAC4 1-1598, limits assumed); assay: reciprocal co-IP, mouse liver lysates (FIG. 1B)
Excerpt: FIG. 1B depicts that mouse liver lysates were used for reciprocal co-IP assay followed by IB analysis.
Please refer to FIG. 1A to FIG. 1G, which illustrates that GNMT interacts with PREX2 and negatively regulates PREX2-mediated AKT signaling. As the data in FIG. 1A illustrated, GNMT interacted with endogenous PREX2. […] To map the binding domain, different Myc-tagged PREX2 truncated mutants were co-expressed with Flag-tagged GNMT in HEK293T cells.

[2] = target: phosphatidylinositol 3,4,5-trisphosphate Rac exchange factor 2 (PREX2) (UniProt Q70Z35 1-1606, limits assumed); assay: cell-based or functional assay
Chain of phosphatidylinositol 3,4,5-trisphosphate Rac exchange factor 2 (PREX2) (Q70Z35 whole entry): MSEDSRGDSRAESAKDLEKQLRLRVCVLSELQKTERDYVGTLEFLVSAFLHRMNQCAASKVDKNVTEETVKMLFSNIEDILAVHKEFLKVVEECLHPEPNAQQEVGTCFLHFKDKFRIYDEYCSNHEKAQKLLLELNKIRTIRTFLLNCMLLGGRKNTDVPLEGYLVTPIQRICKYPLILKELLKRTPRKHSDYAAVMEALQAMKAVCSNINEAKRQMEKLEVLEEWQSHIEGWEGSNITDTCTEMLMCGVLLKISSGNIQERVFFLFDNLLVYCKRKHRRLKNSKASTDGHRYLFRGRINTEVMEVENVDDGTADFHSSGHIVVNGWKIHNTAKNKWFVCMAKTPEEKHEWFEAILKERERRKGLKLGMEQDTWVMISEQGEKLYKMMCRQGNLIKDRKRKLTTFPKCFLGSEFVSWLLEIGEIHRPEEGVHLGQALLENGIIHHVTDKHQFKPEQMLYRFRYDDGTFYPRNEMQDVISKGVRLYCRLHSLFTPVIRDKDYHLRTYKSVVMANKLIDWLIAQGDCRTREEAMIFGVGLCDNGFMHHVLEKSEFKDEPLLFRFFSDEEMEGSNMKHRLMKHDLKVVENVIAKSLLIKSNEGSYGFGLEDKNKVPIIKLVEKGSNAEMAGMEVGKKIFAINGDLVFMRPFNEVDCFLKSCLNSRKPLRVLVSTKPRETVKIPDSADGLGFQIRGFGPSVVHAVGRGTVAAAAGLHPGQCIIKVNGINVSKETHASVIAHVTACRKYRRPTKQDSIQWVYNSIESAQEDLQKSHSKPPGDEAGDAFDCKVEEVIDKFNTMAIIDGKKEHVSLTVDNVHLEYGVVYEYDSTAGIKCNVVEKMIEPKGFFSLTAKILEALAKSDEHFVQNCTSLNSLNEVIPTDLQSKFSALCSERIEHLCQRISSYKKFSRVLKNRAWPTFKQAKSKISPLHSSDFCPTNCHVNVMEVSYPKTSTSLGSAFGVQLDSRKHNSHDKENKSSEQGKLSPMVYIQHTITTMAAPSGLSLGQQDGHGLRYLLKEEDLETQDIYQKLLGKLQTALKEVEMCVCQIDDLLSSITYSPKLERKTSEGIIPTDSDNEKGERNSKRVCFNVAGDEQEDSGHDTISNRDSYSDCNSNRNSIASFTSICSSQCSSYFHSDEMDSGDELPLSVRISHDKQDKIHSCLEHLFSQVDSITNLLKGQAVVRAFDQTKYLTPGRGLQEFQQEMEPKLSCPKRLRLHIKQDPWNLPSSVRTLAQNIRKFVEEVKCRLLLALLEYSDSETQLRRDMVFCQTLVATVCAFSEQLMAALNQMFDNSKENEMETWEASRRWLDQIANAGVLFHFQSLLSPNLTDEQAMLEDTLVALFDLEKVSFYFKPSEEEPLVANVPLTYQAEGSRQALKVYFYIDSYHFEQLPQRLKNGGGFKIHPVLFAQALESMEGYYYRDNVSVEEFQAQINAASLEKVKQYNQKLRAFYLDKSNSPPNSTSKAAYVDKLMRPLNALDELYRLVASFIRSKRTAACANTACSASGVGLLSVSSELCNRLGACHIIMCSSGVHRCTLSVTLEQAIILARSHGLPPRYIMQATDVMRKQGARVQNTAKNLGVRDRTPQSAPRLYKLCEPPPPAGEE

Chain of endogenous PREX2 of mouse liver (Q3LAC4 whole entry): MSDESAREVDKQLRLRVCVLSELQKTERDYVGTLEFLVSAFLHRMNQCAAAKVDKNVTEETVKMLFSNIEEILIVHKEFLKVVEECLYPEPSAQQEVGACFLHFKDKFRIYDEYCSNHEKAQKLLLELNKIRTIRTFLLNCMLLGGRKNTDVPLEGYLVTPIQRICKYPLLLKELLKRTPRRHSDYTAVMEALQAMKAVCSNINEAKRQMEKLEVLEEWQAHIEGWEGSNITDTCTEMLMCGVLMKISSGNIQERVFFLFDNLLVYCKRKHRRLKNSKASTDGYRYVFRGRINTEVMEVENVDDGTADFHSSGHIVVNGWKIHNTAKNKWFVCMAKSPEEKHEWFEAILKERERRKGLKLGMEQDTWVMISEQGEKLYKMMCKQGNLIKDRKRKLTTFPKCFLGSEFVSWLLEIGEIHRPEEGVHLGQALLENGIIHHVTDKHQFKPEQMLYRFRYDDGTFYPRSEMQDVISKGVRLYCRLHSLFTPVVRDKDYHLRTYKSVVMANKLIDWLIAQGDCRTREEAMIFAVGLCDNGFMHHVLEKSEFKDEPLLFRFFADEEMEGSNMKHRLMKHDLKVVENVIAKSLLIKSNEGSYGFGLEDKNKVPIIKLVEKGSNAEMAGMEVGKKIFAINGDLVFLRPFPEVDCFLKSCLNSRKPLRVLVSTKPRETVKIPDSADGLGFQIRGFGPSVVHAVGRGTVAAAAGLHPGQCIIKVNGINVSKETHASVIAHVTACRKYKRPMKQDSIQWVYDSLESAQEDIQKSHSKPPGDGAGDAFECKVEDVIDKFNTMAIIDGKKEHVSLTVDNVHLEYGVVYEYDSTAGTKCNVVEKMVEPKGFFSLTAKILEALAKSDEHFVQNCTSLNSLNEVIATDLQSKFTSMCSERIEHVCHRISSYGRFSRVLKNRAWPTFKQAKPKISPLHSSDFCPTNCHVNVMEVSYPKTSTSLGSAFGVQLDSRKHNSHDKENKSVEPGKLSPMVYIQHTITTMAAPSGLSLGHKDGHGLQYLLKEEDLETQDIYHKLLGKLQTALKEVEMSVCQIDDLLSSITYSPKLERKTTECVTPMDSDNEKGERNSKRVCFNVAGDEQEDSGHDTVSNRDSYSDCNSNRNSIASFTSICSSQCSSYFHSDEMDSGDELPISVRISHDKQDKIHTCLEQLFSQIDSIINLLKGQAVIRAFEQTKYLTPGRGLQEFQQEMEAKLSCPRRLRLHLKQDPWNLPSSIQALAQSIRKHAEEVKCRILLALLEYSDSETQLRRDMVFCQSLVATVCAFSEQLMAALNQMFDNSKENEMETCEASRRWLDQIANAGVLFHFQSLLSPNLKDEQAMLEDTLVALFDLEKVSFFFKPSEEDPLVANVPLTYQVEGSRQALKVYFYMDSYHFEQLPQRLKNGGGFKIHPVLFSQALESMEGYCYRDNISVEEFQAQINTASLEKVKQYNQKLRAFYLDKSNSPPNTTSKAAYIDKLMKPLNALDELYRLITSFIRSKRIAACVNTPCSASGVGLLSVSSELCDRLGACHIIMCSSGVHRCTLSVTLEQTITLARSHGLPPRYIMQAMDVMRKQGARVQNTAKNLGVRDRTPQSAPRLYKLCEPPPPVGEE

| binding result [1] | PREX2 half-life (pulse-chase, 35S-Methionine/Cysteine, Huh7 cells) [2] | Binder |
| --- | --- | --- |
| binds |  | endogenous GNMT of mouse liver (enzyme, UniProt Q9QXF8 2-293, looked up) VDSVYRTRSLGVAAEGLPDQYADGEAARVWQLYIGDTRSRTAEYKAWLLGLLRQHGCHRVLDVACGTGVDSIMLVEEGFSVMSVDASDKMLKYALKERWNRRKEPSFDNWVIEEANWLTLDKDVLSGDGFDAVICLGNSFAHLPDCKGDQSEHRLALKNIASMVRPGGLLVIDHRNYDYILSTGCAPPGKNIYYKSDLTKDITTSVLTVNNKAHMVTLDYTVQVPGTGRDGSPGFSKFRLSYYPHCLASFTELVRAAFGGRCQHSVLGDFKPYKPGQAYVPCYFIHVLKKTD |
|  | 9.4 h | glycine-N-methyltransferase (GNMT) (enzyme) VDSVYRTRSLGVAAEGLPDQYADGEAARVWQLYIGDTRSRTAEYKAWLLGLLRQHGCQRVLDVACGTGVDSIMLVEEGFSVTSVDASDKMLKYALKERWNRRHEPAFDKWVIEEANWMTLDKDVPQSAEGGFDAVICLGNSFAHLPDCKGDQSEHRLALKNIASMVRAGGLLVIDHRNYDHILSTGCAPPGKNIYYKSDLTKDVTTSVLIVNNKAHMVTLDYTVQVPGAGQDGSPGLSKFRLSYYPHCLASFTELLQAAFGGKCQHSVLGDFKPYKPGQTYIPCYFIHVLKRTD |
